Earlier results, collected in US20060122098A1, “System for infusing insulin to a subject to imporve impaired total body tissue glucose processing” (priority 2004, published 2006).

Details: in vivo

Substance: insulin
- half-life: 5 min
